Biological target: T1, Csm1/Lrs4 complex (S. cerevisiae, UniProt P25651 1-190; Q04087 1-347)
T1 sequence (looked up) 1: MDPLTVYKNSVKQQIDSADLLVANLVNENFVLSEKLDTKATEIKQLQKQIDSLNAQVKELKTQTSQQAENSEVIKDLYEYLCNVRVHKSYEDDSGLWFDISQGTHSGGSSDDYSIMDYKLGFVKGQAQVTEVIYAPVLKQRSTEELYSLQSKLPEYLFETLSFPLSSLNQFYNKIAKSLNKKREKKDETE
T1 sequence (looked up) 2: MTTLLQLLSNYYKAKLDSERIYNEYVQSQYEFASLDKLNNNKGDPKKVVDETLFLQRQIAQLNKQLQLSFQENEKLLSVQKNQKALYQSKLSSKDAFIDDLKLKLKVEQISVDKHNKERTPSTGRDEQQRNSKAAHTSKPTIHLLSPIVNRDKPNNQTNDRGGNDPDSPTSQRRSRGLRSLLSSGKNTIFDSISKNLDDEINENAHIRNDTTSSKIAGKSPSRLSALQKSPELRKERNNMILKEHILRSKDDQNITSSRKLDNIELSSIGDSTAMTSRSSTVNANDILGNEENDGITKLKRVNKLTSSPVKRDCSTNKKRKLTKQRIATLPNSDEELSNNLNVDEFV
Assay: SEC

B1: purified four-protein MIND (Mtw1 including Nsl1, Nnf1, and Dsn1) kinetochore complex (complex, S. cerevisiae)
chain 1: MSAPTMRSTSILTEHLGYPPISLVDDIINAVNEIMYKCTAAMEKYLLSKSKIGEEDYGEEIKSGVAKLESLLENSVDKNFDKLELYVLRNVLRIPEEYLDANVFRLENQKDLVIVDENELKKSEEKLREKVNDVELAFKKNEMLLKRVTKVKRLLFTIRGFKQKLNELLKCKDDVQLQKILESLKPIDDTMTLLTDSLRKLYVDSESTSSTEEVEALLQRLKTNGKQNNKDFRTRYIDIRTNNVLRKLGLLGDKEDEKQSAKPDARTQAGDIVSIDIEEPQLDLLDDVL
chain 2: MSQGQSKKLDVTVEQLRSIYHQFHDILEEKTDLHLPKKEYDDDAVRREVQIQLQEFLLSAMTMASKSLEVVNADTVGKTVKQLIMESQEKYMEPFDLDLNEQVRKMYQEWEDETVKVAQLRQTGPAKINEVYNNSKDEYLAQLDGRIGVLQARMMQQQSADHDDSTDDADDHINWEHIKQDYVASLNELYQTQQDLPKVRYNVEKVKRLMDFLEED
chain 3: MVNSHGIRYIRLKQVFNRALDQSISKLQSWDKVSSCFPQYVNSKQGAINVANCQRQLTEFWTELCQREFKEIMEERNVEQKLNELDELILEAKERYTDRDQDEVNKGPAIDELSSKELVECHLYSQRMHAIHEIDERLAKVNEMNDQLAQELKDLETQVEVEKNEIGKMYDEYLGSHTDQPANVLLVQSLNDMVLELKENY
chain 4: MSLEPTQTVSGTPPMLHQRTHKQVYPLRMETIPILESDSKATLQSNEPTQKDEEETEYFENKQSVSNLSPDLKFKRHKNKHIQGFPTLGERLDNLQDIKKAKRVENFNSSAPIADDNHSGDATANATANATANATANVNASAMPAPYMPYYYYYHPMNAPTPAMIPYPGSPMHSIMPNSSLQPFYSQPTAAGGPDMTTPQNISSSQQLLPAPQLFPYGSFHQQQLQQPHYIQRTRERKKSIGSQRGRRLSMLASQANGGSTIISPHKDIPEEDFYTVVGNASFGKNLQIRQLFNWCLMRSLHKLELKAKNQEEEGELEHLTKKSKLESTKAETDYVDPKRLAMVIIKEFVDDLKKDHIAIDWEDEEKYEDEDEEKILDNTENYDDTELRQLFQENDDDDDDDDEVDYSEIQRSRRKFSERRKALPKEPKKLLPNSKNVENTKNLSILTSKVNAIKNEVKEWAVTLDTSRPDLEWQELTSFSSQPLEPLSDTEEPDLAIADVETKLETKVDELRYQSHILNSHSLALNEITNSKVNKLNIETMRKISSETDDDHSQVINPQQLLKGLSLSFSKKLDL
B1 was tested. Which “stoichiometry N” value did it give?
The value was ≤ 4 MIND complexes per Csm1/Lrs4 complex.
